± gives the standard deviation of the averaged measurements.
system: Saccharomyces cerevisiae; experiment: protein stability index of tFT-peptide fusion (C-terminal peptide) (PSI (0-1 scale)); higher = more stable (slower turnover); conditions: genetic background: wild type; temperature: 30 C
Procedure: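 Multiplexed protein stability (MPS) profiling in S. cerevisiae. Random 12-aa peptides (tFT-X12 library) are fused to the C-terminus of a sfGFP-mCherry tandem fluorescent timer, after mCherry and a GGGS linker. Cells are FACS-sorted into 8 mCherry/sfGFP bins and deep-sequenced. The protein stability index (PSI) is the read-weighted bin average, scaled from 0 (unstable) to 1 (stable). Only peptides with >10 reads are reported; cells were grown at 30 °C in SC-His with glucose.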
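Note: PSI is a weighted mean of sequencing reads over stability bins, variants kept only with over 10 reads, mCherry proximal and sfGFP distal, peptide attached via GGGS linker.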

Sequence | protein stability index
EECGVIDIILGG | 0.679 ± 0.013
EEKEKKEKDGRR | 0.728 ± 0.042
EEKREERGDRGR | 0.579 ± 0.01
EEKRKRKSQNEI | 0.702 ± 0.045
EELGGGTRNYEG | 0.693 ± 0.018
EEMMGGAETLHQ | 0.649 ± 0.036
EESKQKKKNEEE | 0.676 ± 0.041
EFDCVGCFRTLR | 0.6618 ± 0.0017
EFEDCGAWGNIG | 0.621 ± 0.039
EFPRDLVFDWYG | 0.857
EFRCRGPWGLEE | 0.761 ± 0.17
EFRQVDGRASRP | 0.701 ± 0.0049
EGAGRRYRCGWG | 0.698 ± 0.049
EGDIFSGFPSFQ | 0.741 ± 0.065
EGEGGKRGEGKR | 0.624 ± 0.041
EGGETLLGAKGR | 0.639 ± 0.013
EGGRGGVLMRGV | 0.727 ± 0.013
EGGVRSRVRSRL | 0.863 ± 0.063
EGKGKGRGEVKE | 0.6733 ± 0.0064
EGKKEKKGSKGE | 0.708 ± 0.052
EGPVYKNIGTDV | 0.6823 ± 0.0013
EGRFRNGRAVSG | 0.673 ± 0.011
EGRGSVVGSSEG | 0.633 ± 0.035
EGVGLAETAGDD | 0.684 ± 0.039
EGVKSGDGGAGG | 0.63832 ± 0.00019

Sequence | protein stability index
EHHLSRLKSLLR | 0.709 ± 0.058
EHIRPNMSSYAV | 0.728 ± 0.072
EHKSPYGTLRFP | 0.777 ± 0.11
EIEFRLKLGTGV | 0.655 ± 0.04
EIKKNQKRKFDG | 0.66 ± 0.041
EIRGGYMGEWRE | 0.691 ± 0.082
EIRIISGIDDRR | 0.628 ± 0.077
EITRNKRRCARR | 0.674 ± 0.14
EKGRSGVNILRV | 0.653 ± 0.011
EKIERDKRKKVK | 0.621 ± 0.0076
EKIKNKDYIEKT | 0.887 ± 0.094
EKKDKKKRKEKG | 0.674 ± 0.028
EKKKKTKYKKKK | 0.735 ± 0.052
EKKKQKHKKKKN | 0.706 ± 0.031
EKKNKKRNKKNK | 0.697 ± 0.058
EKKRAGEDGRGK | 0.673 ± 0.0081
EKKRERRRERKE | 0.65 ± 0.091
EKLADTTKRRRV | 0.724 ± 0.026
EKLKNTYLNRTE | 0.641 ± 0.023
EKNDMKKKKNRQ | 0.713 ± 0.035
EKSNQKSRRNSR | 0.638 ± 0.15
ELDFFIGYGVFC | 0.626 ± 0.0082
ELDRIRPHEQSH | 0.723 ± 0.03
ELHPLPLPPPAV | 0.743 ± 0.013
ELLASVSVSSRF | 0.6276 ± 0.0044

Sequence | protein stability index
ELLPFPPPSAPT | 0.719 ± 0.022
ELLRTGRVLDRE | 0.71 ± 0.0076
ELRPSTTPLHPS | 0.68268 ± 0.00044
ELVGLAHVLELA | 0.655 ± 0.084
ELWGGGFLLMLG | 0.599 ± 0.021
EMTRELLMRVSK | 0.704 ± 0.015
EMYLKTPVDRKL | 0.678 ± 0.038
ENMVLQKRGIKV | 0.5024 ± 0.0049
ENQKKSKTNRKK | 0.658 ± 0.036
EPAAGFAICRHH | 0.67 ± 0.02
EPIKEKKKMGSR | 0.63 ± 0.056
EPRVGCVGFGIT | 0.638 ± 0.013
EPSAPYYCVTKG | 0.7279 ± 0.002
EQENATDRRGRE | 0.644 ± 0.026
EQFLRCEALGAW | 0.661 ± 0.02
EQNRINLNRSGL | 0.762 ± 0.23
EQRSKSHVLPPR | 0.737 ± 0.009
ERAKMYPKKKIR | 0.64 ± 0.067
EREALKSCIIRA | 0.641 ± 0.014
EREGREGKGRER | 0.777 ± 0.079
ERKKDGRKVRKK | 0.658 ± 0.012
ERKNTTSEFTNL | 0.684 ± 0.0079
ERRERGGERNTP | 0.658 ± 0.01
ERSHGEKGVFYL | 0.73 ± 0.031
ESDLRFPGVPCI | 0.696 ± 0.011

Sequence | protein stability index
ESHSIIRRRSWW | 0.7797 ± 0.0037
ESIEVGTGDWVG | 0.653 ± 0.013
ESKKYQQDNITR | 0.608 ± 0.039
ESKRKLHSSRYS | 0.6875 ± 0.0032
ESPPVCFLFSSC | 0.711 ± 0.021
ESRGKKPDTYTQ | 0.707 ± 0.074
ESRNEPDQRLCQ | 0.686 ± 0.013
ESRPRVGLERER | 0.676 ± 0.053
ESSVLGFWIMSL | 0.629 ± 0.041
ETARENENTIGE | 0.6575 ± 0.0065
ETCTRHHPRHNS | 0.687 ± 0.043
ETEASKGSRNEE | 0.627 ± 0.065
ETGGQTELKVVH | 0.683 ± 0.084
ETHHITHHQWKV | 0.683 ± 0.05
ETKFLVDRKTDI | 0.67 ± 0.012
ETQEAKGGMTRQ | 0.667 ± 0.0091
ETSERIEDKDGI | 0.698 ± 0.051
EVFGAGRNDPGS | 0.689 ± 0.018
EVGLSVLLPGGG | 0.675 ± 0.022
EVIRGNEGGKER | 0.708 ± 0.018
EVPLGLIRLPSV | 0.695 ± 0.06
EVTEVCTIKVHV | 0.577 ± 0.0097
EVTVSGEEQRAG | 0.6881 ± 0.0044
